Measured values reported in the supplement of paper PMC10126150.
± gives the standard deviation of the averaged measurements.

System: ATP
Assay: switch fluorescence ratio, 500 uM ATP over buffer (Cy3 cluster intensity, sum of 5 cycles each) (fold (ratio)); higher = stronger signal-on switching upon ATP binding; sequences stand for … in TCGTCGGCAGCGTCAGATGTGTATAAGAGACAGTTTTTTTTTTTTTTTTTTTTTTTTT…TC
Details: aptamer strand: ATP DNA aptamer (quencher-CACCTGGGGGAGTATTGCGGAGGAAGG + anchor), 100 nM annealed; ATP concentration: 500 uM
Method in brief: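 Five buffer/ATP imaging cycles were run on Cy3-labelled switching-strand clusters on a modified Illumina MiSeq flow-cell, with NaOH stripping and re-annealing between cycles. In each cycle, clusters annealed to 100 nM quencher-labelled ATP aptamer were imaged in selection buffer, then after 15 min with 500 uM ATP at 22 °C. Per cluster, the fluorescence ratio is summed target-cycle over summed buffer-cycle Cy3 intensity, averaged per switch-domain sequence. Only clusters within 100-1000 RFU were kept.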
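Also: ATP exposure 15 min at 22 °C before imaging.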

Sequence | switch fluorescence ratio
TGCCGGGAGT | 1.41 ± 0.61
GGGGGAAGAC | 1.04 ± 0.053
TTCAGGGTAT | 1.01 ± 0.037
GATTTTTTGT | 0.99 ± 0.028
AGATGTACTA | 1.04 ± 0.043
TATTGGTGCA | 0.967 ± 0.017
GCCATAGCCT | 0.9953 ± 0.0084
TTAGTAATAT | 1.17 ± 0.12
TAAGTTTTGC | 0.979 ± 0.038
TCAAAGGGGT | 1.052 ± 0.0047
AAGGGAGCAA | 1.09 ± 0.037
ATACGACTTA | 1.04 ± 0.014
CCCAGAGTTC | 1.06 ± 0.023
AGTTTATGTG | 0.9746 ± 0.0073
TATTAATCGA | 1 ± 0.016
CTTAGGTGAC | 1.034 ± 0.004
ATTGCATAGG | 0.9951 ± 0.0021
TTTGAATTCA | 1.19 ± 0.22
TTTGTAAGAA | 1.009 ± 0.006
TTGCGGAGGG | 1.01 ± 0.069
TGGGAATAGT | 1 ± 0.049
AGGGGGAACT | 1.03 ± 0.033
CCGGGGGATC | 1.1 ± 0.017
TAGGTTCCTT | 0.986 ± 0.035
GATGTGCACC | 0.983 ± 0.027
GTGGGGGTGG | 0.985 ± 0.015

Sequence | switch fluorescence ratio
ACCTGCTAAC | 1.59 ± 0.024
GGGGTGATGT | 0.9803 ± 0.0066
TGGTAGGGGA | 1.04 ± 0.03
ATTTAGAATG | 1.02 ± 0.011
CAGGGAGCCT | 0.988 ± 0.05
CCAACTGGGA | 1.05 ± 0.012
GATGATTTGT | 1.02 ± 0.058
GTTAGATTGA | 0.96 ± 0.041
CGGGGCGCTA | 1.21 ± 0.29
TGCGGTAGGT | 0.991 ± 0.018
TAAGGTAGGG | 1.01 ± 0.013
TTCTAAAAAG | 0.995 ± 0.035
GATTTCGATT | 0.969 ± 0.012
ATCCGGTCGG | 1.03 ± 0.066
ATGCTTAGTC | 0.964 ± 0.018
GGGTATAGTT | 0.992 ± 0.024
ATTTGTTGCG | 0.999 ± 0.017
TATAAGGGAG | 0.996 ± 0.023
TGGAGGAGAG | 0.99 ± 0.018
TGCGCTTTTT | 1.03 ± 0.061
AGCTGATAGG | 0.991 ± 0.032
TTCTGGGGCA | 1.05 ± 0.055
ACTTTTTTGA | 1.005 ± 0.0056
AGACTGCTGG | 0.977 ± 0.018
TATGTTATTC | 1.01 ± 0.045
CATAGGTTAT | 0.993 ± 0.048

Sequence | switch fluorescence ratio
ATCATCGGGG | 0.988 ± 0.043
CATAAGGGGA | 0.994 ± 0.038
TTAAGGTATT | 1.07 ± 0.12
GAGAGCTATC | 0.9848 ± 0.0024
TTTTGGGGCA | 1.07 ± 0.13
AAAGGGTGGC | 1.01 ± 0.028
TAGTTAACTT | 1.01 ± 0.021
TTATTTAATT | 0.998 ± 0.027
ATTTTAAGTC | 0.987 ± 0.041
TTGGTTTGGG | 0.98 ± 0.022
TGTATAAATT | 0.9679 ± 0.0048
TCCAAGAGTT | 0.989 ± 0.0055
GGTTTAAGTG | 0.979 ± 0.052
TAATTATTCT | 1.02 ± 0.014
GAGATTTCAT | 0.982 ± 0.036
CGTAGGCGTA | 0.98 ± 0.03
CCAAGGTCCT | 1.01 ± 0.014
CCGCTACTGT | 2.69 ± 0.39
GCAGTAAAAC | 1.694 ± 0.013
ATGTGGTGGT | 1 ± 0.043
GGTTATCGGC | 1.01 ± 0.017
AGGTTCGTTC | 0.97 ± 0.039
TGCAGAAAAT | 1.01 ± 0.036
CGTGGCTGGT | 0.996 ± 0.013
GCAACAATGG | 1.08 ± 0.02
CAGGTAAGGA | 0.969 ± 0.01

Sequence | switch fluorescence ratio
TTTATTAGGG | 0.975 ± 0.021
TTTATATGTC | 1.12 ± 0.23
GAGAGGGATT | 1.03 ± 0.015
ATTTTCATTG | 0.9749 ± 0.0087
TGAGTTGGAC | 1.08 ± 0.067
TAAGGGTTAT | 0.978 ± 0.023
ATGTGGCTAG | 1.01 ± 0.032
AAAATACAGA | 1.08 ± 0.17
GGGTTGGGGA | 1.01 ± 0.025
CATGGGTCCT | 1.04 ± 0.033
TGTGAGACTT | 1.01 ± 0.052
CACAAGTTTT | 1.02 ± 0.03
ATGAGGAGGA | 1.04 ± 0.013
CTTAAAGTTA | 1.01 ± 0.018
TTGGTTGTGT | 1.01 ± 0.015
GGAATCTAAC | 1.03 ± 0.048
TTAATTTTGG | 1.02 ± 0.012
TGTTTGGTTG | 1.01 ± 0.017
ATTGCGTTTG | 1.01 ± 0.026
TATTCGCCTT | 1.11 ± 0.12
AGGGTTATGA | 0.995 ± 0.021
ATAAGTGTCT | 1.02 ± 0.011
GTATGGGGGA | 1.01 ± 0.031
CTGAAGGTTG | 0.9737 ± 0.0014
CGTTCCGGTC | 1.06 ± 0.054
CCTGGGTGTG | 1.05 ± 0.11

Sequence | switch fluorescence ratio
TGGGGGGGAC | 1.04 ± 0.069
GGATTCTTGG | 0.977 ± 0.024
TGCGTTCGGC | 0.963 ± 0.041
GGGAGTCTTC | 1.04 ± 0.1
ATAAGCGCAG | 1.008 ± 7e-05
CGGGTTGGGC | 1.07 ± 0.027
TGATAGATGC | 1.03 ± 0.025
ATCCCCGACC | 1.25 ± 0.063
ATAAGTGCGA | 0.9826 ± 0.002
AAGATTGGGT | 1 ± 0.049
TAGGTTTAGG | 0.987 ± 0.013
AGTTAAGGCC | 1.09 ± 0.092
AACCTCACGC | 1.73 ± 0.2
TTATAATGTG | 1.009 ± 0.01
TTTCGACGCT | 2.18 ± 0.85
ATCCGTGAGA | 1.05 ± 0.02
AATAAACAGG | 1.08 ± 0.041
CCGGGCTGGG | 1.03 ± 0.018
ATGAGTTTTT | 1.01 ± 0.054
GGTGGAGGGG | 1 ± 0.0022
GTGGAAGGGG | 0.988 ± 0.03
TCAGTCTTTC | 1.017 ± 0.0009
GAGGTACGTA | 1.01 ± 0.027
ATGGGGAAGT | 1.02 ± 0.02
CAGTTAGACA | 0.99 ± 0.081
ATCATACTTG | 1.03 ± 0.029

Sequence | switch fluorescence ratio
TACGGGGACA | 1.07 ± 0.055
TCTGGGTGAA | 1.03 ± 0.081
CGTGTCGCGC | 1.002 ± 0.01
TATTGACCGT | 1.04 ± 0.029
AGTTTGTTCT | 0.999 ± 0.01
CTGCTTCGAA | 1.06 ± 0.023
ACTCGATGTG | 0.989 ± 0.045
TTGGTTTGTG | 1.01 ± 0.035
GCAATATGTA | 1.62 ± 0.11
GGTAATTTTC | 1.11 ± 0.18
GATCCCAGAG | 1.16 ± 0.082
TTGCATTGGA | 0.9885 ± 0.0079
AGGCGGGGTT | 1.01 ± 0.026
CGAGTTTGAC | 0.977 ± 0.019
CGATGGAGGA | 0.98967 ± 0.00091
TATCGTAGGA | 0.977 ± 0.032
CGGTTGACTT | 0.992 ± 0.057
CGATATTGAT | 1.03 ± 0.035
GTTCTGAAGG | 1.02 ± 0.0029
GGCCCGTTAC | 1.63 ± 0.2
ACTCTGTGC | 1.21 ± 0.032
GCGTTTGGTA | 0.988 ± 0.04
GGAAGGGCGA | 0.9569 ± 0.0068
